Biological target: CherryPicker DmrA chimeric protein
Assay: cell-based or functional assay

- amount of AcGFP-DmrC in microvesicles produced with A/C heterodimerizer (western blot against AcGFP standards): 5 ng/µL
- amount of AcGFP-DmrC in microvesicles produced without A/C heterodimerizer (western blot against AcGFP standards): 0.6 ng/µL
- packaging efficiency of AcGFP-DmrC into microvesicles, +A/C against -A/C: 8 fold
Substance: AcGFP-DmrC fusion protein
